Assay results as given in patent publication US20230087785A1, “Leucine-Rich Repeat Kinase 2 Allosteric Modulators” (VIB VZW, priority 2020, published 2023).

B1: Nb6: LRRK2-specific Nanobody, SEQ ID NO: 2 (protein)
VHH: MAQVQLVESGGGLVQAGGSLRLSCAASGSIFSPTAMGWYRQAPGKERELVAGITSGGYTNYRNFARGRFTISRDNAKKTVYLQMNSLNPEDTAVYYCNTLTISWSWGQGTQVTVSS
modifications: Nanobody CA12618
B2: Nb23: LRRK2-specific Nanobody, SEQ ID NO: 3 (protein)
VHH: MAQVQLVESGGGLVQAGGSLRLSCAASGRTFSRYTMGWFRQAPGKDREFVARITTSGAVTTYADSAKGRFTISRDNAKNTVYLQMNTLKPEDTAVYYCAAGQGQLSSQSRFVDYWGQGTQVTVSS
modifications: Nanobody CA13612
B3: Nb42: LRRK2-specific Nanobody, SEQ ID NO: 6 (protein)
VHH: MAQVQLVESGGGLVQAGGSLRLSCAASGDVNYAVGWFRQAPRKEREFVAAINWRGDNTDYTDSVKGRFTISRDNAKNTVYLQMNSLKPEDTAVYYCAAKSAPYWYSDIAPDYWGQGTQVTVSS
modifications: Nanobody CA14259
B4: Nb1: LRRK2-specific Nanobody, SEQ ID NO: 1 (protein)
VHH: MAQVQLVESGGGLVQAGGSLRLSCVASGRIFSGNAMGWYRQAPGRQRELVAGITNGGYTNYRQFVKGRFTISRDNAKRTVYLQMNSLKPEDTAVYYCNALDREARQVDYWGQGTQVTVSS
modifications: Nanobody CA12610
B5: Nb22: LRRK2-specific Nanobody, SEQ ID NO: 9 (protein)
VHH: MAQVQLVESGGGLVQAGGSLRLSCAASGRTFSSYTMGWFRQAPGKEREFVAAIRWSGGSTYYADSVKGRFTISRDNAKNTVYLQMNSLKPEDTAVYYCAASDRGGFIATSGGWMDYWGKGTQVTVSS
modifications: Nanobody CA13611

How the values were obtained:
LRRK2 = target: T1, LRRK2 (Homo sapiens, UniProt Q5S007, M2397T/R50H); assay: Competition ELISA titration; assay type: binding; conditions: Nb 450 nM to 0.2 nM; for shift of the Nb ELISA titration curve in presence of AdoCbl: 250 μM; for shift of the Nb ELISA titration curve in presence of MLi-2: large excess of MLi-2 (1 μM)
T1 construct: Full-length human LRRK2 was expressed and purified based on previously developed protocols; SF tag (FLAG-tag + Twin-Strep-tag); made in house; host or cells: HEK 293T
Text: LRRK2 was coated in the wells of the ELISA plate and the ELISA signal for a dilution series of the respective Nbs (detected via their C-terminal EPEA-tag) is plotted in function of the Nb concentration. […] A “no antigen control”, where no LRRK2 was coated on the bottom of the well, is also included.
Most currently described LRRK2 inhibitors bind directly to the ATP-binding pocket of the kinase domain. […] Two of the in vitro kinase activity inhibiting Nbs described herein (Nb 1 and Nb6) bind LRRK2 predominantly via interactions with the COR-B domain, thus proposing a novel mechanism of action, and thereby excluding a mechanism of inhibition similar to these previously described LRRK2 kinase inhibitors that all directly interact with the kinase domain. […] To verify and confirm that Nb1, Nb6 and Nb23 bind LRRK2 in a different mode than any known small molecule kinase inhibitor, thus also different that the reported vitamin B12 forms, a competition ELISA titration experiment was performed (FIGS. 17A-17C). In this experimental setup, the ELISA experiment was performed using a fixed concentration of LRRK2 coated on the bottom of the ELISA plate, and using a dilution series of either of the three Nbs ranging from 450 nM to 0.2 nM. Detection of Nb binding in ELISA is performed using their C-terminal EPEA-tag, resulting in a dose-response titration curve reflecting an apparent affinity of the Nbs. […] Additionally, as a positive control, a repetition of the setup was performed in presence of an excess (9 μm) of the corresponding untagged Nb.
The ELISA experiment was performed similar as described above, using a fixed concentration of LRRK2 coated on the bottom of the ELISA plate, and using a 1:4 dilution series of Nb1, Nb6 or Nb23 ranging from 450 nM to 0.2 nM. Detection of Nb binding was performed using the C-terminal EPEA tag of the Nbs as described before, resulting in a dose response titration curve reflecting an apparent affinity of the Nbs. […] A “no antigen control”, where no LRRK2 was coated on the bottom of the well, was also included. The absorbance signal (A405 nm) was read out at different time points and the A405 nm at 0.5 h (Nb6 and Nb23) or 10 h (Nb1) was plotted in function of the Nb concentration.

LRRK2 (wild-type) = target: T2, LRRK2 (wild-type) (Homo sapiens, UniProt Q5S007, M2397T/R50H); assay: In vitro peptide phosphorylation (PhosphoSens kinase) assay; assay type: biochemical; conditions: 25 μM Nb; 10 μM AQT0615 peptide
T2 construct: Full-length human LRRK2 was expressed and purified based on previously developed protocols; SF tag (FLAG-tag + Twin-Strep-tag); made in house; host or cells: HEK 293T
Description: FIGS. 4A and 4B. Modulation of in vitro kinase activity by LRRK2-targeting Nbs. (FIG. 4A) Effect of selected LRRK2-targeting Nbs on LRRK2 kinase activity measured using the fluorescence-based PhosphoSens® Protein Kinase Assay, using the LRRK2-optimized AQT0615 peptide as substrate at a fixed concentration of 10 μM, and in the presence of 1 mM or 0.1 mM ATP, respectively. The influence of the different Nbs at a concentration of 25 μM on the relative kinase activity compared to the control where no Nb was added (“No Nb”) is plotted. […] (FIG. 4B) The influence of the different Nbs (25 μM) on the relative kinase activity compared to the “No-Nb” control is plotted, either in presence of 500 μM GDP (top) or 500 μM GTPγS (bottom). […] Each bar reflects the average (±SD) of three independent measurements.
Hereto, we used the fluorescence-based PhosphoSens® Protein Kinase Assay (AssayQuant Technologies Inc.), using the LRRK2-optimized AQT0615 peptide as substrate at a fixed concentration of 10 μM. The increase in fluorescence (Δexc:360 nm; Δemm:485 nm) due to LRRK2-catalyzed peptide phosphorylation was measured continuously in time under initial rate conditions at an ATP concentration of either 0.1 and 1 mM. Subsequently, the 10 Nbs were added at a final concentration of 25 μM and the effect on the initial rate was determined in triplicate (FIG. 4A). Two negative controls, where either no Nb or an irrelevant Nb was added, were also included. […] These experiments were performed in addition with LRRK2 either in the presence of a large excess (500 μM) of GDP or GTPγS (FIG. 4B), but no significant influence of the nucleotide on the inhibition profile was observed.
The Nb concentration was varied from 200 or 150 μM to 0.006 μM in a two-fold serial dilution, while keeping the peptide and ATP substrate concentrations constant at 10 μM and 1 mM, respectively (FIG. 11A-C).
The influence of the purified Nbs on LRRK2 kinase activity was determined using the PhosphoSens® Protein Kinase Assay (AssayQuant Technologies Inc.) using the optimized LRRK2 AQT0615 peptide as substrate and according to the manufacturers' instructions. The continuous kinase assay was performed in a total volume of 50 μL in a black half area 96 well plate. Each reaction mixture contained 10 μM AQT0615 peptide substrate/probe, either 0.1 mM or 1 mM ATP and 500 μM of either GDP, or GTPγS in a buffer consisting of 50 mM HEPES pH 7.5, 0.1% Brij-35, 50 mM NaCl and 10 mM MgCl2. The reaction was initiated by addition of a final concentration of 80 nM of LRRK2 either in absence or presence of 25 μM Nb. Prior to addition, LRRK2 and the Nbs were pre-incubated for 30 minutes on ice. The LRRK2-catalyzed phosphorylation of the peptide substrate/probe is followed continuously at 30° C. in a plate reader with excitation and emission wavelength of 360 nm and 485 nm respectively. Time traces were corrected by subtracting the “no LRRK2” control. The initial rates were determined from the slope of the linear portion of the curve.
To determine IC50 values the Nb concentration was varied from 150 μM to 0.006 μM using a two-fold serial dilution. In these assays a final LRRK2 concentration of 150 nM and an ATP concentration of 1 mM was used. The relative LRRK2 activity (compared to the “no nanobody” control) was plotted against the logarithmic Nb concentration and fitted on a three-parameter log(inhibitor) vs response equation in the GraphPad Prism software. All time traces were collected in triplicate.

T1 sequence (Q5S007 whole entry R50H/M2397T): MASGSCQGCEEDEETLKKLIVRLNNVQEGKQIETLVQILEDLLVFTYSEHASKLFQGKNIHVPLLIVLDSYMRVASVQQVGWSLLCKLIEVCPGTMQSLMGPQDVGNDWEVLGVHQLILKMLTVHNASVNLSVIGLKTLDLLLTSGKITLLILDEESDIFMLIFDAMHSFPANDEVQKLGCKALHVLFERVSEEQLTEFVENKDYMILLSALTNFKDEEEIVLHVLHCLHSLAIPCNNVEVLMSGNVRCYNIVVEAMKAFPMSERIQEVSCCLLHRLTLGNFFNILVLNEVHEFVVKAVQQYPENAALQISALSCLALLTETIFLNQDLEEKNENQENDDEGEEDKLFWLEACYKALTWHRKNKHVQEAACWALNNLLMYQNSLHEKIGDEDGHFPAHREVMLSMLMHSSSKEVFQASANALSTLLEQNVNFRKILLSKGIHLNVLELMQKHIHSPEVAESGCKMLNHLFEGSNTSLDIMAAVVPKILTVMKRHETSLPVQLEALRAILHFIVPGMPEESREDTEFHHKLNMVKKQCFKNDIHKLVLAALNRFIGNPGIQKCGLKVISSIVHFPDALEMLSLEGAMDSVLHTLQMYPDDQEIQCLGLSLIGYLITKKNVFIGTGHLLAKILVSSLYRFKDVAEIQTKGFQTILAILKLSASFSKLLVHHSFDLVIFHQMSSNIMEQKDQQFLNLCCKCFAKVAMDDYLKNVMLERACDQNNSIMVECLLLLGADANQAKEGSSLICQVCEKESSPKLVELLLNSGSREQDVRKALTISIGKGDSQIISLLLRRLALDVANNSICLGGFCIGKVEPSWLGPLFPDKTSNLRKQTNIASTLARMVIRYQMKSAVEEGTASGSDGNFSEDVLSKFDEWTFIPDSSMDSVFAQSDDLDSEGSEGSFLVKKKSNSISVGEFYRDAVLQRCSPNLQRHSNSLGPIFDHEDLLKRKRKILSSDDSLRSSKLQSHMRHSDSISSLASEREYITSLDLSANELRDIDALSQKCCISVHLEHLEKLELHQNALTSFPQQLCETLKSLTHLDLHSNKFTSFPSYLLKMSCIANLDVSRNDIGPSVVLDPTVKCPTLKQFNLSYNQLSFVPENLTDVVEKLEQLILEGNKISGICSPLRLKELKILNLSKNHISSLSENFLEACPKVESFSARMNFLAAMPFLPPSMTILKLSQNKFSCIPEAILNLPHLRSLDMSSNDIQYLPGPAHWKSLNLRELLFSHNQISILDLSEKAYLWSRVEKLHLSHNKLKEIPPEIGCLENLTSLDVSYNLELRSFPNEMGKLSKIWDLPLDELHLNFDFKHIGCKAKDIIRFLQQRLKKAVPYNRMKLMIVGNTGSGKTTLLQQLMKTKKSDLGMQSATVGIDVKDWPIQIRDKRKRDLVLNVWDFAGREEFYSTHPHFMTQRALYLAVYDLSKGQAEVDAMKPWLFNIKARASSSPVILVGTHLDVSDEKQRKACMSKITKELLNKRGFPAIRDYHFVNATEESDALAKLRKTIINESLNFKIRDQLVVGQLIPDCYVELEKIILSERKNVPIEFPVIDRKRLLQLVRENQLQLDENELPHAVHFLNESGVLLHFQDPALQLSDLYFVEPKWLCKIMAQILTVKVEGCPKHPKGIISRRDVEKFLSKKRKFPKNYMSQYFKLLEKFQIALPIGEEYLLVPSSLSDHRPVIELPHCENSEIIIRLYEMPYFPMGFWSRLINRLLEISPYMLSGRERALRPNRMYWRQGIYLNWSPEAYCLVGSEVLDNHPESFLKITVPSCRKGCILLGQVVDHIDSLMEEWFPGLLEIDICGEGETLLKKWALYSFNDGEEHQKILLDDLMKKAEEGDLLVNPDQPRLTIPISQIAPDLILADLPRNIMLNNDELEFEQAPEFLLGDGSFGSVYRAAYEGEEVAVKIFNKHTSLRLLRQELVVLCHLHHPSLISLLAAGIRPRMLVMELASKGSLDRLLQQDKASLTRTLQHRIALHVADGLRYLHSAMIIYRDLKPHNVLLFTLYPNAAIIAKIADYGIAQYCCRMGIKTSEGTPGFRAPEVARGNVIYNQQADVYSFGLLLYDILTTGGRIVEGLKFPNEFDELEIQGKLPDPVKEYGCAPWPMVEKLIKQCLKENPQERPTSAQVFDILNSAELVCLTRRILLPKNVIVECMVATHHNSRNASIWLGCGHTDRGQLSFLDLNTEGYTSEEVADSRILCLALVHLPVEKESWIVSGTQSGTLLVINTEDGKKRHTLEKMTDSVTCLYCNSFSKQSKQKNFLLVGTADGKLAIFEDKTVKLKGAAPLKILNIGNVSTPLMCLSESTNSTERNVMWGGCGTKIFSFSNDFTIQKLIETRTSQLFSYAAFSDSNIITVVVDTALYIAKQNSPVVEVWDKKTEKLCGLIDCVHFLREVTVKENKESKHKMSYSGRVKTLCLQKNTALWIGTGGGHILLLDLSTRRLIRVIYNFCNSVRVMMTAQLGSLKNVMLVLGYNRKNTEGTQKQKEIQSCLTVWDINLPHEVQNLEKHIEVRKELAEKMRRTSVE
T2 sequence (Q5S007 whole entry R50H/M2397T): as above

Row | Molecule | shift of the Nb ELISA titration curve in presence of AdoCbl (LRRK2) | shift of the Nb ELISA titration curve in presence of MLi-2 (LRRK2) | effect on in vitro LRRK2 kinase activity (LRRK2 (wild-type))
1 | B1 | no rightward shift is observed | no rightward shift is observed | very clear significant inhibiting effect
2 | B2 | no rightward shift is observed | no rightward shift is observed | (to a lesser extent) Nb23 (CA13612), have a very clear significant inhibiting effect
3 | B3 | – | – | no inhibitory effect could be observed in vitro
4 | B4 | no rightward shift is observed | no rightward shift is observed | very clear significant inhibiting effect
5 | B5 | – | – | activates the kinase activity of LRRK2 in vitro
